Tested on: MS2 coat protein
Test: apparent KD of MS2 coat protein; designed switch direction (-1 OFF switch, 1 ON switch): -1; higher = weaker reporter binding
In short: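 The apparent KD reported per design is the median over clusters of curve fits to normalised cluster fluorescence. The RNA switches were transcribed on Illumina chips by stalled E. coli RNA polymerase. SNAP-549-labelled MS2 coat protein was titrated from 0.7 or 1.5 nM, doubling up to 3 µM, in Tris-HCl pH 7.5 buffer containing KCl, MgCl2, BSA, DTT, tRNA and Tween-20, with no input, 200 uM small-molecule ligand, or an oligonucleotide input.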

[1] = Eterna round: R95, input ligand: microRNA oligo, concentration not stated
[2] = Eterna round: R95, input ligand: FMN 200 uM
[3] = Eterna round: R95, input ligand: none
[4] = input ligand: microRNA oligo, concentration not stated

| Sequence | apparent KD of MS2 coat protein (input ligand: FMN 200 uM) [µM] | apparent KD of MS2 coat protein (input ligand: none) [µM] | apparent KD of MS2 coat protein [1] [µM] | also measured |
| --- | --- | --- | --- | --- |
| ACAAGCUUUUUCAUAUCUUACAUGAGGAUCACCCAUGUUUUUGCAAUUAUGUUUGGGCUCUUUUGAGCUCGUCUUAU [JR_STOV1_Sub048] (Eterna round: R97, puzzle: Sensor, turn-off variant 1) | 0.0135 | 0.0144 | – | – |
| GCCGGAGCAGGAUAUUCAAUAUCACACAUGAGGAUCACCCAUGUCCAGCGAAAGCUGGAGGGAGAAGGGCUCUGGC [Fiskers Ex 5 - 15] (puzzle: Exclusion 5) | – | – | 0.0561 | – |
| GAGAAACAUGAGGAUCACCCAUGUGAGGAUAUGUGAGACUAAAGCGCGCAGGCUAAGGACAGAAGGCACAAGGA [Excls1-Ia] (puzzle: Exclusion 1) | – | – | 0.0426 | apparent KD of MS2 coat protein [2]: 0.0575 µM; apparent KD of MS2 coat protein [3]: 0.053 µM |
| GGAGUUAGAGAGGAUAUGGAGGAGAGGCCAAUUCCAGAAGGUUCAACAUGAGGAUCACCCAUGUAUUUUCCUCA [AK-MS2ROC-r4-exclusion6-2] (Eterna round: R97, puzzle: Exclusion 6) | 0.0256 | 0.0338 | – | – |
| AGCAGACGAGGAUAUAGAUUUAGAUACAUGAGGAUCACCCAUGUAUAUAUGUAUUUAGAUUUAGAAGGCGUCUGCU [E5/15-A1] (Eterna round: R97, puzzle: Exclusion 5) | 0.222 | 0.219 | – | – |
| CGUACUGAAGUGAGGAUAUUGUCUCGGAUACGAAACAAGAAGGCACAUGAGGAUCACCCAUGUAGACAGUACGA [Malc #30 mod 2] (puzzle: Brourd's mod of Exclusion 4) | – | – | 0.0173 | apparent KD of MS2 coat protein [2]: 0.0151 µM; apparent KD of MS2 coat protein [3]: 0.0157 µM |
| UCGGCGCGAGGAUAUACGUUUGCUUUUUGGGAUCGUUGCGUACAUGAGGAUCACCCAUGUAGAAGGCGCGCCGC [Apr-15 SS2-26] (puzzle: Exclusion 2) | – | – | 0.0159 | – |
| GAGUAGUAAGGAUAUGUCUCUGGUGGCUACGGUCACUAGAGGCAGAAGGUACAUGAGGAUCACCCAUGUUCCUC [ExDelusion 8 - Jieux - Exclusion 4] (Eterna round: R97, puzzle: Exclusion 4) | 0.186 | 0.0558 | – | – |
| UGGUCCCUGAAACAUGAGGAUCACCCAUGUAUAAUGAGGACAAAGGAUAUAUCCCACCAGGUAGGGUAGAAGGUUGAACUCUAC [Eternabot solution 42] (Eterna round: R96, puzzle: Exclusion NG 3) | 0.0131 | 0.0162 | – | apparent KD of MS2 coat protein [4]: 0.0106 µM |
| GCAGCAAAAUUCCAUAAAACCACAUGAGGAUCACCCAUGUCUCAGGAUAUGGUCUGGAUUACAGGCCAGAAGGGAGAAAGCUGC [Eli exng3 - 058] (Eterna round: R96, puzzle: Exclusion NG 3) | 0.0146 | 0.0139 | – | apparent KD of MS2 coat protein [4]: 0.0126 µM |
| AAUAGUCGGUAGGAUAUCCACGGAUGACCGGCAGGAGAAGGGCCGACUUGAGGAUCACCCAAGUAUGGUCCUAA [Texeonxe] (Eterna round: R97, puzzle: Exclusion 6) | 0.0159 | 0.0145 | – | – |
| UAUUAACAAGCAAGAUCCCACAUGAGGAUCACCCAUGUGCUCGUCUUAUAAGGUACUGUGACGAAAGUCACGGUACC [Sensor 3, v1 - 80] (puzzle: Sensor v3, turn-off variant 1) | – | – | 0.58 | apparent KD of MS2 coat protein [2]: 0.0265 µM; apparent KD of MS2 coat protein [3]: 0.028 µM |
| AUGUCGGCAGGAUAUACAUGAGGAUCACCCAUGUAAAUUUUUCGUUUAACUUGAAUGUGUAGAAGGGCCAUGAA [Ex3 #68] (Eterna round: R97, puzzle: Exclusion 3) | 0.0309 | 0.033 | – | – |
| GUGCGACAUGAGGAUCACCCAUGUCAGGAUAUAUAGAACGAUAACGAAAUCGUUAUCGGUAGAAGGGACGGUGA [Eternabot (L1) Solution 48] (Eterna round: R97, puzzle: Exclusion 1) | 0.0186 | 0.0214 | – | – |
| UUUAUGUCAGGAUAUACAUGAGGAUCACCCAUGUAUACCUUAAGGUAUACAUGGGAAUGUAGAAGGGACCUCCU [Omei Ex3 Pseudoloop 8] (Eterna round: R97, puzzle: Exclusion 3) | 0.0266 | 0.0467 | – | – |
| UAUAAAACAUAGGAUAUCGAAAUUAUCAUUUAACGAGAAGGAUGAACAUGAGGAUCACCCAUGUGGUAUCAUGG [Mat - Exclusion 6 - JL Mod - D10] (Eterna round: R96, puzzle: Exclusion 6) | – | – | – | apparent KD of MS2 coat protein [4]: 0.328 µM |

| Sequence | apparent KD of MS2 coat protein (input ligand: FMN 200 uM) [µM] | apparent KD of MS2 coat protein (input ligand: none) [µM] | apparent KD of MS2 coat protein [1] [µM] | also measured |
| --- | --- | --- | --- | --- |
| GGUGAGCUAGGAUAUGCUUUGGGCACGCAUUCCUUCGAUAAACUUGAGGAUCACCCAAGUAGAAGGAGCUUGCC [salish99_ex2_r4_030] (Eterna round: R97, puzzle: Exclusion 2) | 0.0181 | 0.0129 | – | – |
| CUCGUGCAGCUUUGCUGUACGAGUACAUGAGGAUCACCCAUGUAGGAUAUGGUACGCUUUGCGUGCUAGAAGGACGUGUGUAUG [JL EXNG3 1.39] (Eterna round: R96, puzzle: Exclusion NG 3) | 0.117 | 0.0318 | – | apparent KD of MS2 coat protein [4]: 0.029 µM |
| GGACAACAUGAGGAUCACCCAUGUCAGGAUAUGACGGCGUCGGCGAAAGCGGAGGCGGUCAGAAGGGACGGUAA [AK-MS2ROC-r4-exclusion1-10.1] (Eterna round: R97, puzzle: Exclusion 1) | 0.115 | 0.0519 | – | – |
| AAAGAACAUGAGGAUCACCCAUGUGAGGAUAUCGAGAAAAGAAAGAAGAAGAAGAAAACGAGAAGGCACAAGAA [The design that might work] (puzzle: Exclusion 1) | – | – | 0.065 | apparent KD of MS2 coat protein [2]: 0.0437 µM; apparent KD of MS2 coat protein [3]: 0.0569 µM |
| UAACAUGUAGAAGGAUAUCUGCACGAUUAGUGCAGAGAAGGUCUAACAUGAGGAUCACCCAUGUAGAUCAUUAAUUAAUUAAUU [ENG1/8-B1] (Eterna round: R96, puzzle: Exclusion NG 1) | 0.0152 | 0.0124 | – | apparent KD of MS2 coat protein [4]: 0.00843 µM |
| CGACGACAUGAGGAUCACCCAUGUCAGGAUAUGGAAAACCAGAAUAUAUUUUAACUUUCCAGAAGGGACAGGUC [Eternabot (Original) Solution 1] (Eterna round: R97, puzzle: Exclusion 1) | 0.0196 | 0.0181 | – | – |
| CUCCGGCAUGUAGGAUAUGGAUCCGAUUAGGAUCCAGAAGGACAUGAGGAUCACCCAUGUACAUGUAAACAGUCAUCACCGGAC [salish99_ExNG1_r04_202] (Eterna round: R96, puzzle: Exclusion NG 1) | 0.284 | 0.0442 | – | apparent KD of MS2 coat protein [4]: 0.0299 µM |
| GCGGACAAGAUAUAAAUAUCAGAGACAUGAGGAUCACCCAUGUAGGAUAUCGAUUCGAAACGAAUCGAGAAGGGCAUAGUCCGC [JL denovo 1] (Eterna round: R96, puzzle: Exclusion NG 3) | 0.0188 | 0.0187 | – | apparent KD of MS2 coat protein [4]: 0.0138 µM |
| GAGGAACAUGAGGAUCACCCAUGUGAGGAUAUGCAUAGUGAGGUAGUAGACGUUUAUUGCAGAAGGUACACUGA [JR_Exclu1_Sub079] (puzzle: Exclusion 1) | – | – | 0.0256 | – |
| CCAAGCUUAUUCAUUAACCACAUGAGGAUCACCCAUGUCUAGGCAAUUAUGACUUGCCCAUCUGGUGCUCGUCUUAU [Sensor-V1 #32] (Eterna round: R97, puzzle: Sensor, turn-off variant 1) | 0.032 | 0.0327 | – | – |
| GGAUUUACUGAGGAUAUUGCAUCACCCGACUGAUAAGAAGGCAGAACAUGAGGAUCACCCAUGUGGGUACUCAA [Bingo-Bango-5] (Eterna round: R97, puzzle: Exclusion 6) | 0.095 | 0.105 | – | – |
| UUUAUGUGAGGAUAUAGUACUCCUUCUAUUAUUUUUGAGUACUAGAAGGCACAUGAGGAUCACCCAUGUAGUAC [Ex4 - 3 - 38] (puzzle: Exclusion 4) | – | – | 0.0221 | – |
| GACGCUAAAGGAUAUACAUGAGGAUCACCCAUGUUGAGGAAGGUUAGAUGAGGAGUAAGUAGAAGGUUAGGCGA [JR_Exclu3_Sub092] (puzzle: Exclusion 3) | – | – | 0.0336 | – |
| UGAUUGAUUAACAGAUUAUACAUGAGGAUCACCCAUGUAGGUCCUACGUGCCCUUUAAGCAGCUCGUCUUAUUCCCA [Sensor-V1 #69] (Eterna round: R97, puzzle: Sensor, turn-off variant 1) | 0.0437 | 0.0456 | – | – |
| AUCAGCUCGUGAGGAUAUACAUGAUAGAUCGAUUAAUUAAUUAAUUUAACAUGAGGAUCACCCAUGUAGAAGGCACGAGCUGAU [ENG2/1-A3] (Eterna round: R96, puzzle: Exclusion NG 2) | – | – | – | apparent KD of MS2 coat protein [4]: 0.03 µM |
| CUUGUACAUGAGGAUCACCCAUGUUAGGAUAUCUCGCCGUCGGCUUGCCGACGGUAUUAGAGAAGGGACAAGGG [JL Tixe mod 7] (puzzle: Exclusion 1) | – | – | 0.0186 | – |
